The values below come from patent US20240175001A1.

For this assay, the target named is SNAP-25 (rat) (UniProt P60881). In words: cell-based or functional assay.
UniProt P60881, sequence (P60881 whole entry): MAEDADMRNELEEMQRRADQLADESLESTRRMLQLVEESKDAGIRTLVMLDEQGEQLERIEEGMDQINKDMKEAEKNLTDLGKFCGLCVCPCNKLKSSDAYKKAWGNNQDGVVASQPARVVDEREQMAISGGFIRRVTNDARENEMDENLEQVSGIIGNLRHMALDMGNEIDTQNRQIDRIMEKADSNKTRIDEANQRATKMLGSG

Regarding native BoNT/A1 (LIST), the pEC50 (percentage SNAP-25 cleavage in rat eSCN, 24 h, Western blot) came out at 12.3.
